Reference: US20200239537

Molecular target: T1, apelin-17 (2)
T1 chain: KFRRQRPRLSHKGPMPF

B1: recombinant human neprilysin (rhNEP, Sino Biological) (protein)
chain: YDDGICKSSDCIKSAARLIQNMDATTEPCTDFFKYACGGWLKRNVIPETSSRYGNFDILRDELEVVLKDVLQEPKTEDIVAVQKAKALYRSCINESAIDSRGGEPLLKLLPDIYGWPVATENWEQKYGASWTAEKAIAQLNSKYGKKVLINLFVGTDDKNSVNHVIHIDQPRLGLPSRDYYECTGIYKEACTAYVDFMISVARLIRQEERLPIDENQLALEMNKVMELEKEIANATAKPEDRNDPMLLYNKMTLAQIQNNFSLEINGKPFSWLNFTNEIMSTVNISITNEEDVVVYAPEYLTKLKPILTKYSARDLQNLMSWRFIMDLVSSLSRTYKESRNAFRKALYGTTSETATWRRCANYVNGNMENAVGRLYVEAAFAGESKHVVEDLIAQIREVFIQTLDDLTWMDAETKKRAEEKALAIKERIGYPDDIVSNDNKLNNEYLELNYKEDEYFENIIQNLKFSQSKQLKKLREKVDKDEWISGAAVVNAFYSSGRNQIVFPAGILQPPFFSAQQSNSLNYGGIGMVIGHEITHGFDDNGRNFNKDGDLVDWWTQQSASNFKEQSQCMVYQYGNFSWDLAGGQHLNGINTLGENIADNGGLGQAYRAYQNYIKKNGEEKLLPGLDLNHKQLFFLNFAQVWCGTYRPEYAVNSIKTDVHSPGNFRIIGTLQNSAEFSEAFHCRKNSYMNPEKKCRVW
With B1 the Km was 190 µM, the kcat (1/S) was 3.4 1/S and the kcat/Km (1/MS) was 18000 1/MS.
